This is an account of results in patent US20110305670A1.

Assay [1] has as its target envelope glycoprotein of the R5 isolate YU2, on virus (HIV-1 (YU2 isolate)) (UniProt P35961). Briefly: cell-based or functional assay.
Assay [2] has as its target envelope glycoprotein of the R5X4 isolate 89.6, on virus (HIV-1 (89.6 isolate)) (UniProt Q73372). Briefly: cell-based or functional assay.

UniProt P35961, sequence (P35961 32-843): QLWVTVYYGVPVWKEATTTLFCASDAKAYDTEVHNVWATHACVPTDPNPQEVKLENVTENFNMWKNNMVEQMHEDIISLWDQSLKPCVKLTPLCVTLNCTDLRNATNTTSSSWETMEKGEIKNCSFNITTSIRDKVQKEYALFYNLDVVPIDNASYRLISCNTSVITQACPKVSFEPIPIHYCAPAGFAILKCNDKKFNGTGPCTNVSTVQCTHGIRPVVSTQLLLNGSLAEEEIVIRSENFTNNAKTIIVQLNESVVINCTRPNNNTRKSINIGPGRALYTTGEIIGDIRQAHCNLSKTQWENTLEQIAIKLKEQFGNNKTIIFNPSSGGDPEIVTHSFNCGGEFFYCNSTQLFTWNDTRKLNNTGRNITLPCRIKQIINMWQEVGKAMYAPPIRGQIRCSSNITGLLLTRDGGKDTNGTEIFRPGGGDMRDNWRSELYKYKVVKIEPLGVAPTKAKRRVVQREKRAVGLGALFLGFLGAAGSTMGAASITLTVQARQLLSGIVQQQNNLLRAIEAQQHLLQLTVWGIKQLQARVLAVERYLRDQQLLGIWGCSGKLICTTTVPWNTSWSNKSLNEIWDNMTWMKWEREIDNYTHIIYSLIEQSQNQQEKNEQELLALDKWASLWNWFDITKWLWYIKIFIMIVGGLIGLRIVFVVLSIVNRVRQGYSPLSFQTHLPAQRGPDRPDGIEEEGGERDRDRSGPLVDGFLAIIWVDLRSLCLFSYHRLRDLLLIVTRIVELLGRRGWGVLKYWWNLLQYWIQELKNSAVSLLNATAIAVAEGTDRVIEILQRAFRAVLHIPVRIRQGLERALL

Take “eCD4-Ig (from UniProt P01730 26-203) (Fc fusion)”: the IC50 difference between CD4-Ig and eCD4-Ig (fold) in assay [1] came to 3 fold; in assay [2] it was 50 fold. The neutralization of GFP-expressing HIV-1, IC50 in assay [1] came out at 2 nM; in assay [2] it was 0.6 nM.
